Measured values as given in publication PMC7189476.

Molecular target: human PCNA, purified (human), P12004
Experiment: SPR; Bio-Rad XPR 36; human PCNA (~350 RU) immobilised on GLC chip by amine coupling; subunits injected at 125 to 2000 nM; 25 mM HEPES pH 7.5, 10% glycerol, 200 mM sodium acetate pH 7.8, 8 mM magnesium acetate, 1 mM DTT, 0.005% Tween-20, 0.2 mg/ml BSA; 20°C; 1:1 (Langmuir) model
Conditions: remark: other sources report otherwise

Chain of human PCNA, purified (human), P12004 (P12004 whole entry): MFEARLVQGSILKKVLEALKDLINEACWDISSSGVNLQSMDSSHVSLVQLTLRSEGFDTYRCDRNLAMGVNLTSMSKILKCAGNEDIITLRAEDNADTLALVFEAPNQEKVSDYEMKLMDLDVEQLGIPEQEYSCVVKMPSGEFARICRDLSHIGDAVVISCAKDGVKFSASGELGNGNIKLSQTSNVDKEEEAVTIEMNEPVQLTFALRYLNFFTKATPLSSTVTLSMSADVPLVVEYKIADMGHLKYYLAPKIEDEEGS

B1: p125, purified, P28340 1-1107 (natural protein)
chain: MDGKRRPGPGPGVPPKRARGGLWDDDDAPRPSQFEEDLALMEEMEAEHRLQEQEEEELQSVLEGVADGQVPPSAIDPRWLRPTPPALDPQTEPLIFQQLEIDHYVGPAQPVPGGPPPSRGSVPVLRAFGVTDEGFSVCCHIHGFAPYFYTPAPPGFGPEHMGDLQRELNLAISRDSRGGRELTGPAVLAVELCSRESMFGYHGHGPSPFLRITVALPRLVAPARRLLEQGIRVAGLGTPSFAPYEANVDFEIRFMVDTDIVGCNWLELPAGKYALRLKEKATQCQLEADVLWSDVVSHPPEGPWQRIAPLRVLSFDIECAGRKGIFPEPERDPVIQICSLGLRWGEPEPFLRLALTLRPCAPILGAKVQSYEKEEDLLQAWSTFIRIMDPDVITGYNIQNFDLPYLISRAQTLKVQTFPFLGRVAGLCSNIRDSSFQSKQTGRRDTKVVSMVGRVQMDMLQVLLREYKLRSYTLNAVSFHFLGEQKEDVQHSIITDLQNGNDQTRRRLAVYCLKDAYLPLRLLERLMVLVNAVEMARVTGVPLSYLLSRGQQVKVVSQLLRQAMHEGLLMPVVKSEGGEDYTGATVIEPLKGYYDVPIATLDFSSLYPSIMMAHNLCYTTLLRPGTAQKLGLTEDQFIRTPTGDEFVKTSVRKGLLPQILENLLSARKRAKAELAKETDPLRRQVLDGRQLALKVSANSVYGFTGAQVGKLPCLEISQSVTGFGRQMIEKTKQLVESKYTVENGYSTSAKVVYGDTDSVMCRFGVSSVAEAMALGREAADWVSGHFPSPIRLEFEKVYFPYLLISKKRYAGLLFSSRPDAHDRMDCKGLEAVRRDNCPLVANLVTASLRRLLIDRDPEGAVAHAQDVISDLLCNRIDISQLVITKELTRAASDYAGKQAHVELAERMRKRDPGSAPSLGDRVPYVIISAAKGVAAYMKSEDPLFVLEHSLPIDTQYYLEQQLAKPLLRIFEPILGEGRAEAVLLRGDHTRCKTVLTGKVGGLLAFAKRRNCCIGCRTVLSHQGAVCEFCQPRESELYQKEVSHLNALEERFSRLWTQCQRCQGSLHEDVICTSRDCPIFYMRKKVRKDLEDQEQLLRRFGPPGPEAW
Q: How did the Kd turn out when B1 was run?
A: The Kd was 114 nM.

Q: And the koff?
A: Its koff is 0.0002 s⁻¹.

Q: And the kon?
A: Its kon is 1750 M⁻¹ s⁻¹.

Q: And the response units?
A: The response units was 90 RU.
